Read-outs that look alike come from different tables or passages of the source.
T1: DOF6 (Col-0) (Arabidopsis thaliana (Col-0), UniProt Q9M1E6 1-245)
T1 sequence: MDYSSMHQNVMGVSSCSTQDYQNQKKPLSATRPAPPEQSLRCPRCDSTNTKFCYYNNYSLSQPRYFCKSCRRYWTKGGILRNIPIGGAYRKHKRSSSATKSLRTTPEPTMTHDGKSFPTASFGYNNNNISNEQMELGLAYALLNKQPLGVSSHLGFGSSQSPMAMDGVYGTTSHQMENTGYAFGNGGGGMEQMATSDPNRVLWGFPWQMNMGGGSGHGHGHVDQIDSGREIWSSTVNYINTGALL

T2: RGL2 (Col) (Arabidopsis thaliana (Col-0), UniProt Q8GXW1 1-547)
T2 sequence: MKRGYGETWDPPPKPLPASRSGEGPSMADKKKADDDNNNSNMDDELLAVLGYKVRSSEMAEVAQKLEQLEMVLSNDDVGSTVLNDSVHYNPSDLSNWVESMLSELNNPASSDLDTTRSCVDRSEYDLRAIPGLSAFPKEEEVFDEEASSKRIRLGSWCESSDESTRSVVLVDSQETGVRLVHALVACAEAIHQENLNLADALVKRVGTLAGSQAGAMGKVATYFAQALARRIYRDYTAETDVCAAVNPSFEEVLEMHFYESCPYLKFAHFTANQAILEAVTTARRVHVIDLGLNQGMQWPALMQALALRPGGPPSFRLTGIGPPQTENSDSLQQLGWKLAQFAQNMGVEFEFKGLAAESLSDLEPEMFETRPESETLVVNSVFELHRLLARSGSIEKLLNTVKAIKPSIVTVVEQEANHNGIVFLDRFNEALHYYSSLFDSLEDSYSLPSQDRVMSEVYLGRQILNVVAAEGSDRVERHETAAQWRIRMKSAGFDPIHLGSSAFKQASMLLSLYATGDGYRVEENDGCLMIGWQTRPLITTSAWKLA

T3: DOF6 (Col-0);RGL2 (Col) (Arabidopsis thaliana …, UniProt Q9M1E6;Q8GXW1 1-245;1-547, |)
T3 sequence 1: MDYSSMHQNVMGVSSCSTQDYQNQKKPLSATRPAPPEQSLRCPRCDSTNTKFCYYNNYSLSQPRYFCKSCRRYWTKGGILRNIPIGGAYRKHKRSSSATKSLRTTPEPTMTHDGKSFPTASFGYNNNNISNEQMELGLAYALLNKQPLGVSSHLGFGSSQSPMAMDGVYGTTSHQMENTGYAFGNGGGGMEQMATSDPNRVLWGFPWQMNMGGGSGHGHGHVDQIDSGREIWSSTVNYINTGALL
T3 sequence 2: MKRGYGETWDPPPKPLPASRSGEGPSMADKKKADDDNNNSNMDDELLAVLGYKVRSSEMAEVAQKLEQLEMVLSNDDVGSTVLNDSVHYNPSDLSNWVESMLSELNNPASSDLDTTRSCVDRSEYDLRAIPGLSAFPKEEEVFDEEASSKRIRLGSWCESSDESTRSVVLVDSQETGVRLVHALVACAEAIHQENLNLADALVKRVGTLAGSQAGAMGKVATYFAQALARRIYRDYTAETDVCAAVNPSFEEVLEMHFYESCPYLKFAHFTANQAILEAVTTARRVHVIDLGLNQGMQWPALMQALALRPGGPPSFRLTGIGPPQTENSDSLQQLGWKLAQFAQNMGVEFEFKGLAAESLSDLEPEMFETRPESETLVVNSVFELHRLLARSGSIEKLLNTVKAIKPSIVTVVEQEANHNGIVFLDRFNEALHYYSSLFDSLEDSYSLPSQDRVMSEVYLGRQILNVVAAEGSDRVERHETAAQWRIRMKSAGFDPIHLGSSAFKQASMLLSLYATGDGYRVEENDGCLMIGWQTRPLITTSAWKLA


What was measured:
Test in all cases: EMSA
[1] = molecular target: T1, DOF6 (Col-0)
[2] = molecular target: T2, RGL2 (Col)
[3] = molecular target: T3, DOF6 (Col-0);RGL2 (Col)
[4] = molecular target: T3, DOF6 (Col-0);RGL2 (Col); remark: listed apart in the source

Binder | binding result [1] | binding result [2] | binding result [3] | binding result [4]
GA20ox3 Col probe (P8) (dsDNA) DNA 1: TAAAAAATAAAAATGAAAAGTATCATGATA DNA 2: TATCATGATACTTTTCATTTTTATTTTTTA | binds | no binding | binds | 
GA20ox3 Tib probe (dsDNA) DNA 1: TTTAAAAATAAAATAAAAAGTATCATGATA DNA 2: TATCATGATACTTTTTATTTTATTTTTAAA | binds |  |  | binds

Reference: publication PMC12125310
